Test results taken from article PMC6555819, “Comprehensive study of nuclear receptor DNA binding provides a revised framework for understanding receptor specificity”.
Numbering of substitutions follows the chain as printed.

B1: NRC3_wobSeed114_DR4_G17T_o1 (dsDNA)
DNA 1: GCAATACAGGGTCATCTTAGGCCAGAGTACGCACAGGCGATTGACAGCGTAGAATGAAGG
DNA 2: CCTTCATTCTACGCTGTCAATCGCCTGTGCGTACTCTGGCCTAAGATGACCCTGTATTGC
B2: NRC3_random_hg19_217_o1 (dsDNA)
DNA 1: GCCTCAAACTCCCTTCTTCAGTTTCTGGTAGATCAAGCGATTGACAGCGTAGAATGAAGG
DNA 2: CCTTCATTCTACGCTGTCAATCGCTTGATCTACCAGAAACTGAAGAAGGGAGTTTGAGGC
B3: NRC3_random_hg19_176_o1 (dsDNA)
DNA 1: GCCTGCCTGTGTTGGGACTTTGACTCCACATTTCCCGCGATTGACAGCGTAGAATGAAGG
DNA 2: CCTTCATTCTACGCTGTCAATCGCGGGAAATGTGGAGTCAAAGTCCCAACACAGGCAGGC
B4: NRC3_random_hg19_180_o1 (dsDNA)
DNA 1: GCCAAGATAACCAGCTTATCTATCAGTTGGAGCAGAGCGATTGACAGCGTAGAATGAAGG
DNA 2: CCTTCATTCTACGCTGTCAATCGCTCTGCTCCAACTGATAGATAAGCTGGTTATCTTGGC
B5: NRC3_random_hg19_394_o1 (dsDNA)
DNA 1: GCGAGATCGAGACCATCTTGGCTAACACGGTGAAACGCGATTGACAGCGTAGAATGAAGG
DNA 2: CCTTCATTCTACGCTGTCAATCGCGTTTCACCGTGTTAGCCAAGATGGTCTCGATCTCGC
B6: NRC3_random_hg19_412_o1 (dsDNA)
DNA 1: GCACAACAGATGCTGGAGAGGATATGGAGATCCTTTGCGATTGACAGCGTAGAATGAAGG
DNA 2: CCTTCATTCTACGCTGTCAATCGCAAAGGATCTCCATATCCTCTCCAGCATCTGTTGTGC
B7: NRC3_wobSeed109_DR4_G25A_o1 (dsDNA)
DNA 1: GCCGTCCAAGGTCATAGGAGGTCAATGAAGACAGATGCGATTGACAGCGTAGAATGAAGG
DNA 2: CCTTCATTCTACGCTGTCAATCGCATCTGTCTTCATTGACCTCCTATGACCTTGGACGGC
B8: NRC3_wobSeed109_DR4_G17T_o1 (dsDNA)
DNA 1: B7 DNA 1 with G17T, A25G
DNA 2: B7 DNA 2 with T36C, C44A
B9: NRC3_wobSeed103_DR4_G23C_o1 (dsDNA)
DNA 1: GCGCATATAGGTAATACAAGGTCAAAGTCCGATTGTGCGATTGACAGCGTAGAATGAAGG
DNA 2: CCTTCATTCTACGCTGTCAATCGCACAATCGGACTTTGACCTTGTATTACCTATATGCGC
B10: NRC3_random_hg19_397_o1 (dsDNA)
DNA 1: GCGGTGTCGTGTGCCTGTGATCCCAGCTACGCAGGCGCGATTGACAGCGTAGAATGAAGG
DNA 2: CCTTCATTCTACGCTGTCAATCGCGCCTGCGTAGCTGGGATCACAGGCACACGACACCGC
B11: NRC3_random_hg19_439_o1 (dsDNA)
DNA 1: GCTATGGTTTGGCTGTGTCTCCATTCAAATCTCAACGCGATTGACAGCGTAGAATGAAGG
DNA 2: CCTTCATTCTACGCTGTCAATCGCGTTGAGATTTGAATGGAGACACAGCCAAACCATAGC
B12: NRC3_wobSeed101_DR4_C18A_o1 (dsDNA)
DNA 1: GCCCTTACGGGTCACTCAAGGTTATAGCATCGGAGTGCGATTGACAGCGTAGAATGAAGG
DNA 2: CCTTCATTCTACGCTGTCAATCGCACTCCGATGCTATAACCTTGAGTGACCCGTAAGGGC
B13: NRC3_wobSeed101_DR4_T23C_o1 (dsDNA)
DNA 1: B12 DNA 1 with A18C, T23C
DNA 2: B12 DNA 2 with A38G, T43G
B14: NRC3_wobSeed37_DR1_G22A_o1 (dsDNA)
DNA 1: GCCGTCCAAGGTCAAAGGTCAATGAAGAGATGACGGGCGATTGACAGCGTAGAATGAAGG
DNA 2: CCTTCATTCTACGCTGTCAATCGCCCGTCATCTCTTCATTGACCTTTGACCTTGGACGGC
B15: NRC3_random_hg19_16_o1 (dsDNA)
DNA 1: GCGTTGTATCGTGTTATGTATGAGAGTCAGGATCTTGCGATTGACAGCGTAGAATGAAGG
DNA 2: CCTTCATTCTACGCTGTCAATCGCAAGATCCTGACTCTCATACATAACACGATACAACGC
B16: NRC3_wobSeed116_DR4_A21G_o1 (dsDNA)
DNA 1: GCAGAATGAGGTTACCAAAGGTCAGGGAAACGCTTGGCGATTGACAGCGTAGAATGAAGG
DNA 2: CCTTCATTCTACGCTGTCAATCGCCAAGCGTTTCCCTGACCTTTGGTAACCTCATTCTGC
B17: NRC3_wobSeed113_DR4_G15C_o1 (dsDNA)
DNA 1: GCATATGTAGGTTACCTGGGGTCATTCAGACTAGGCGCGATTGACAGCGTAGAATGAAGG
DNA 2: CCTTCATTCTACGCTGTCAATCGCGCCTAGTCTGAATGACCCCAGGTAACCTACATATGC
B18: NRC3_wobSeed136_DR5_C24A_o1 (dsDNA)
DNA 1: GCTAGCCTAGGTCATTCAGGGGCAAGTATAGAAAGCGCGATTGACAGCGTAGAATGAAGG
DNA 2: CCTTCATTCTACGCTGTCAATCGCGCTTTCTATACTTGCCCCTGAATGACCTAGGCTAGC
B19: NRC3_random_hg19_371_o1 (dsDNA)
DNA 1: GCTTAAGGATGGACCATTGGCTAAAGCAATGTCAAAGCGATTGACAGCGTAGAATGAAGG
DNA 2: CCTTCATTCTACGCTGTCAATCGCTTTGACATTGCTTTAGCCAATGGTCCATCCTTAAGC
B20: NRC3_wobSeed88_DR3_G11T_o1 (dsDNA)
DNA 1: GCTAGCCTAGTTCATGCGGGCCAGTATAGTGTCGGCGCGATTGACAGCGTAGAATGAAGG
DNA 2: CCTTCATTCTACGCTGTCAATCGCGCCGACACTATACTGGCCCGCATGAACTAGGCTAGC
B21: NRC3_random_hg19_346_o1 (dsDNA)
DNA 1: GCGCCTTCTGCTACAGGGCAAAGGTGGCACACAAAGGCGATTGACAGCGTAGAATGAAGG
DNA 2: CCTTCATTCTACGCTGTCAATCGCCTTTGTGTGCCACCTTTGCCCTGTAGCAGAAGGCGC

Target: THRa:RXRa (Homo sapiens, UniProt P10827;P19793 full;full)
Assay: no ligand; PBM; 90 nM : 90 nM RXRa; PBS pH 7.4, 2% milk, 0.02% Triton X-100, 1 mM DTT, BSA, 0.4 mg/ml salmon testes DNA
Details: tags: His kept;His cleaved; copies: 1;1; label: surface-attached array probe

Chain of THRa:RXRa (P10827 other isoform, or with tags, fused parts or gaps, chain 1 of 2): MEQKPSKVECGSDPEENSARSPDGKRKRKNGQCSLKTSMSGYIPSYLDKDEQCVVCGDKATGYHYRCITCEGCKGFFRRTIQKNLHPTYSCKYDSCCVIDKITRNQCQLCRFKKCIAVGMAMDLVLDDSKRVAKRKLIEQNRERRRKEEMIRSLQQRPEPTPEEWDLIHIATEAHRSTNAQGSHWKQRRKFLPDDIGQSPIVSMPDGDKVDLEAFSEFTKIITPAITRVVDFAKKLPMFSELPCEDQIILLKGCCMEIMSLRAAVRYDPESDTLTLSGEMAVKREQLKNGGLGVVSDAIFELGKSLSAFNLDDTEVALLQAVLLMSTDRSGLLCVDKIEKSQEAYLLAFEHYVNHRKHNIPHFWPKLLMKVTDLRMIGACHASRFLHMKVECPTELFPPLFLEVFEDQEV
Chain of THRa:RXRa (P19793 whole entry, chain 2 of 2): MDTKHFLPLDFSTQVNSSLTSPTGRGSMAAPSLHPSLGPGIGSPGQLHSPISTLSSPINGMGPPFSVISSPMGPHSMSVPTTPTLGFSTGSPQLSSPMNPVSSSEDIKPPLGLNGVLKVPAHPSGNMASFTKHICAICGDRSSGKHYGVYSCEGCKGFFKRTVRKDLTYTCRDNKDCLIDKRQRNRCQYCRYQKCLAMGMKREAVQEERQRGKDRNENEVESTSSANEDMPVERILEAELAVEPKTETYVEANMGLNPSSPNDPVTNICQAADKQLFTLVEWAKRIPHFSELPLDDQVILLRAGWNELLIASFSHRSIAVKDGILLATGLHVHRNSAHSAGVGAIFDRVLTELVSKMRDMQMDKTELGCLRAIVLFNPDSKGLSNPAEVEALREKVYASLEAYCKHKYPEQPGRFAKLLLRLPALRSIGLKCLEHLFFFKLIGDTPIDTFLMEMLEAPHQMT

| Binder | binding signal |
| --- | --- |
| B1 | 5.49 PBM z-score against 500 random probes |
| B2 | -0.02 PBM z-score against 500 random probes |
| B3 | -0.11 PBM z-score against 500 random probes |
| B4 | -0.68 PBM z-score against 500 random probes |
| B5 | -0.09 PBM z-score against 500 random probes |
| B6 | -0.82 PBM z-score against 500 random probes |
| B7 | 5.65 PBM z-score against 500 random probes |
| B8 | 5.58 PBM z-score against 500 random probes |
| B9 | 4.92 PBM z-score against 500 random probes |
| B10 | -0.32 PBM z-score against 500 random probes |
| B11 | 0.36 PBM z-score against 500 random probes |
| B12 | 5.41 PBM z-score against 500 random probes |
| B13 | 5.34 PBM z-score against 500 random probes |
| B14 | 5.12 PBM z-score against 500 random probes |
| B15 | 0.16 PBM z-score against 500 random probes |
| B16 | 5.21 PBM z-score against 500 random probes |
| B17 | 5.46 PBM z-score against 500 random probes |
| B18 | 5.06 PBM z-score against 500 random probes |
| B19 | -0.29 PBM z-score against 500 random probes |
| B20 | 0.14 PBM z-score against 500 random probes |
| B21 | 0.22 PBM z-score against 500 random probes |

Target: RXRa (Homo sapiens, UniProt P19793)
Assay: no ligand; PBM; 180 nM; PBS pH 7.4, 2% milk, 0.02% Triton X-100, 1 mM DTT, BSA, 0.4 mg/ml salmon testes DNA
Details: tags: His cleaved; chain copies: 2; label: surface-attached array probe

| Binder | binding signal |
| --- | --- |
| B10 | -0.17 PBM z-score against 500 random probes |
| B14 | 10.7 PBM z-score against 500 random probes |

Target: LXRa:RXRa (Homo sapiens, UniProt Q13133;P19793 full;full)
Assay: no ligand; PBM; 270 nM : 90 nM RXRa; PBS pH 7.4, 2% milk, 0.02% Triton X-100, 1 mM DTT, BSA, 0.4 mg/ml salmon testes DNA
Details: tags: His kept;His cleaved; copies: 1;1; label: surface-attached array probe
In short: (§1)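 Ligand-free nuclear receptor dimers were bound for 1 h to custom Agilent 4×180K protein-binding microarrays. Detection used antibodies against each partner (one per run). Binding z-scores rest on regression-normalized fluorescence, with random background probes as the reference.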

| Binder | binding signal |
| --- | --- |
| B1 | 7.35 PBM z-score against 500 random probes |
| B2 | 0.47 PBM z-score against 500 random probes |
| B3 | -0.07 PBM z-score against 500 random probes |
| B6 | -0.73 PBM z-score against 500 random probes |
| B8 | 7.97 PBM z-score against 500 random probes |
| B9 | 7 PBM z-score against 500 random probes |
| B13 | 8.42 PBM z-score against 500 random probes |
| B16 | 9.08 PBM z-score against 500 random probes |
| B17 | 8.75 PBM z-score against 500 random probes |
| B18 | 6.65 PBM z-score against 500 random probes |
| B20 | 0.09 PBM z-score against 500 random probes |
| B21 | 0 PBM z-score against 500 random probes |

Target: LXRb:RXRa (Homo sapiens, UniProt P55055;P19793 full;full)
Assay: as above
Details: tags: His kept;His cleaved; copies: 1;1; label: surface-attached array probe
In short: as §1

Chain of LXRb:RXRa (P55055 whole entry, chain 1 of 2): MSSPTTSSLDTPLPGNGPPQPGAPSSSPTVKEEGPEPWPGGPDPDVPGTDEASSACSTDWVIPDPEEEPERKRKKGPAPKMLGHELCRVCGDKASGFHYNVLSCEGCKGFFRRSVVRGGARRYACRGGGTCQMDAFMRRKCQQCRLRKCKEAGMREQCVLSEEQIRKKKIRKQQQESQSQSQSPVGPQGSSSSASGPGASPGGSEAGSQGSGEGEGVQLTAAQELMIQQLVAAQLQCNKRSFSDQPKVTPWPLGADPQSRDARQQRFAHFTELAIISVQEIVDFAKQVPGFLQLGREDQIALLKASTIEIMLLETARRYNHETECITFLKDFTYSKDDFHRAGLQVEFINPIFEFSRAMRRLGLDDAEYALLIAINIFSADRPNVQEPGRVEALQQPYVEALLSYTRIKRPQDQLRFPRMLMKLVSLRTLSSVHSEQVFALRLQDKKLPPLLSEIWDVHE
Chain of LXRb:RXRa (P19793 whole entry, chain 2 of 2): as the sequence (P19793 whole entry, chain 2 of 2) above

| Binder | binding signal |
| --- | --- |
| B4 | -0.9 PBM z-score against 500 random probes |
| B6 | -0.93 PBM z-score against 500 random probes |
| B7 | 7.06 PBM z-score against 500 random probes |
| B12 | 6.18 PBM z-score against 500 random probes |
| B13 | 7.16 PBM z-score against 500 random probes |
| B14 | 7.29 PBM z-score against 500 random probes |
| B15 | 0.41 PBM z-score against 500 random probes |
| B16 | 8.32 PBM z-score against 500 random probes |
| B17 | 8.08 PBM z-score against 500 random probes |
| B19 | -0.56 PBM z-score against 500 random probes |

Target: FXR:RXRa (Homo sapiens, UniProt Q96RI1;P19793 full;full)
Assay: as above
Details: tags: His kept;His cleaved; copies: 1;1; label: surface-attached array probe
In short: as §1

| Binder | binding signal |
| --- | --- |
| B3 | -0.18 PBM z-score against 500 random probes |
| B6 | -0.81 PBM z-score against 500 random probes |

Target: PPARa:RXRa (Homo sapiens, UniProt Q07869;P19793 full;full)
Assay: as above
Details: tags: GST kept;His cleaved; copies: 1;1; label: surface-attached array probe
In short: as §1

Chain of PPARa:RXRa (Q07869 whole entry, chain 1 of 2): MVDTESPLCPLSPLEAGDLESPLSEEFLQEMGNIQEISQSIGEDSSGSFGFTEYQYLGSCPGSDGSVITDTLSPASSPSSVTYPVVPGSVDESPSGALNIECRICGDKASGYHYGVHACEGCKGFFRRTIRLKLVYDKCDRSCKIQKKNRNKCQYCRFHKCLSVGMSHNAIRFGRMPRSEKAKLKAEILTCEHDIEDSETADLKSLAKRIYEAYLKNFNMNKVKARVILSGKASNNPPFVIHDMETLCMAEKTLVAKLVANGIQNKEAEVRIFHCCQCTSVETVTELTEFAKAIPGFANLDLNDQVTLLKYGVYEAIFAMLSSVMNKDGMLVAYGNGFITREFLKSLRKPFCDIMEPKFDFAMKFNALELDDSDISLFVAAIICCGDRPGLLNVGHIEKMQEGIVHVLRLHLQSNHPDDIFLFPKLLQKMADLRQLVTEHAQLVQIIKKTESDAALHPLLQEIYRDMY
Chain of PPARa:RXRa (P19793 whole entry, chain 2 of 2): as the sequence (P19793 whole entry, chain 2 of 2) above

| Binder | binding signal |
| --- | --- |
| B3 | 0 PBM z-score against 500 random probes |
| B7 | 6.49 PBM z-score against 500 random probes |
| B14 | 7.52 PBM z-score against 500 random probes |

Target: VDR:RXRa (Homo sapiens, UniProt P11473;P19793 full;full)
Assay: as above
Details: tags: His kept;His cleaved; copies: 1;1; label: surface-attached array probe
In short: as §1

| Binder | binding signal |
| --- | --- |
| B10 | -0.31 PBM z-score against 500 random probes |

Target: PXR:RXRa (Homo sapiens, UniProt O75469;P19793 full;full)
Assay: as above
Details: tags: His kept;His cleaved; copies: 1;1; label: surface-attached array probe
In short: as §1

| Binder | binding signal |
| --- | --- |
| B5 | -0.39 PBM z-score against 500 random probes |
| B11 | 0.5 PBM z-score against 500 random probes |

Target: RARb:RXRa (Homo sapiens, UniProt P10826;P19793 full;full)
Assay: as above
Details: tags: His kept;His cleaved; copies: 1;1; label: surface-attached array probe
In short: as §1

Chain of RARb:RXRa (P10826 whole entry, chain 1 of 2): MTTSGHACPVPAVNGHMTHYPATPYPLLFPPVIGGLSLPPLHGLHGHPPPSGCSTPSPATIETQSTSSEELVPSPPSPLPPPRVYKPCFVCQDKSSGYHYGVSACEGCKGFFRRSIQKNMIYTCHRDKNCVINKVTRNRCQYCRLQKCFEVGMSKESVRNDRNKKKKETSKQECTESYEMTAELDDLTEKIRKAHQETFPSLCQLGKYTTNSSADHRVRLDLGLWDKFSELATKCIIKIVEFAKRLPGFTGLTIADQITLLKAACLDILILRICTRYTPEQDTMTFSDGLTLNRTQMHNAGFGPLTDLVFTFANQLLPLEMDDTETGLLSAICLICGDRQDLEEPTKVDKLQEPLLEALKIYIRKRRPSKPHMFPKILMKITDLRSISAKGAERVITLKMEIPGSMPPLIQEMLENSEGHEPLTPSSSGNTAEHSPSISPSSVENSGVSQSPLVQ
Chain of RARb:RXRa (P19793 whole entry, chain 2 of 2): as the sequence (P19793 whole entry, chain 2 of 2) above

| Binder | binding signal |
| --- | --- |
| B2 | -0.02 PBM z-score against 500 random probes |
| B7 | 5.71 PBM z-score against 500 random probes |
| B10 | 0.07 PBM z-score against 500 random probes |

Target: RARg:RXRa (Homo sapiens, UniProt P13631;P19793 full;full)
Assay: as above
Details: tags: His kept;His cleaved; copies: 1;1; label: surface-attached array probe
In short: as §1

Chain of RARg:RXRa (P13631 whole entry, chain 1 of 2): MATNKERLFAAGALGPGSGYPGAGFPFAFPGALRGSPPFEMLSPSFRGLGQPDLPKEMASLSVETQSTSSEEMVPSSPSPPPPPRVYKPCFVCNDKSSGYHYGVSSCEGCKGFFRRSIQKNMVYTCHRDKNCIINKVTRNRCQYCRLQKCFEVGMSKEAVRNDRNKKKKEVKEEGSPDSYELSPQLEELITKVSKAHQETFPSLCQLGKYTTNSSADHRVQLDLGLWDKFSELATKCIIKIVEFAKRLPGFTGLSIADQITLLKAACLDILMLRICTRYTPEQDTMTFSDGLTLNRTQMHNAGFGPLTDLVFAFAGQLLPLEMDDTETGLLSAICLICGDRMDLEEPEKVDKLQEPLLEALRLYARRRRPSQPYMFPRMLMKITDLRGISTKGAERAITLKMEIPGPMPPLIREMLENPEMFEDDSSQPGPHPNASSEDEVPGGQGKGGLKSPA
Chain of RARg:RXRa (P19793 whole entry, chain 2 of 2): as the sequence (P19793 whole entry, chain 2 of 2) above

| Binder | binding signal |
| --- | --- |
| B14 | 9.11 PBM z-score against 500 random probes |
| B18 | 4.49 PBM z-score against 500 random probes |
| B20 | 0.41 PBM z-score against 500 random probes |
